Experimental findings from publication PMC8967028 are described below.

The target of the assay is SARS-CoV-1 spike (S) receptor binding domain (SARS-CoV-1). The assay can be described thus: SPR.
Take VHH-72-Fc L97W (Fc fusion): the koff was determined as 0.00018 s⁻¹. Then VHH-72-Fc L97W,T99V (Fc fusion), with 8e-05 s⁻¹. Then VHH-72-Fc S56M (Fc fusion), with 0.00025 s⁻¹; and VHH-72-Fc S56M,L97W (Fc fusion), with 0.0002 s⁻¹; and VHH-72-Fc S56M,L97W,T99V (Fc fusion), with 0.00013 s⁻¹. Then VHH-72-Fc S56M,T99V (Fc fusion), with 0.00016 s⁻¹. With VHH-72-Fc T99V (Fc fusion), the koff was 0.00012 s⁻¹.

As a reminder, the koff is a measure of how fast the partners let go of each other. A low value points to a long-lived complex.
